Publication PMC8262884

B1: TY-UGP_(1-485) (enzyme)
chain: MPLNPPSAFSGAALACLEKMQASGVEEKCIHIFLIQHALVRKGETGYIPEKSISPVESLPFLQGIETKGENTALLRQAVVLKLNGGLGTGMGLNGPKSLLQVKNGQTFLDFTALQLEHFRQVRNCNVPFMLMNSFSTSGETKNFLRKYPTLYEVFDSDIELMQNRVPKIRQDNFFPVTYEADPTCEWVPPGHGDVYTVLYSSGKLDYLLGKGYRYMFISNGDNLGATLDVRLLDYMHEKQLGFLMEVCRRTESDKKGGHLAYKDVIDETTGQTRRRFVLRESAQCPKEDEDSFQNIAKHCFFNTNNIWINLMELKKMMDEQLGVLRLPVMRNPKTVNPQDSQSTKVYQLEVAMGAAISLFDRSEAVVVPRERFAPVKTCSDLLALRSDAYQVTEDQRLVLCEERNGKPPAIDLDGEHYKMIDGFEKLVKGGVPSLRQCTSLTVRGLVEFGADVSVRGNVVIKNLKEEPLIIGSGRVLDNEVVVVE
B2: MYC-tagged UDP-glucose pyrophosphorylase (UGP-MYC) (enzyme)
chain: MPLNPPSAFSGAALACLEKMQASGVEEKCIHIFLIQHALVRKGETGYIPEKSISPVESLPFLQGIETKGENTALLRQAVVLKLNGGLGTGMGLNGPKSLLQVKNGQTFLDFTALQLEHFRQVRNCNVPFMLMNSFSTSGETKNFLRKYPTLYEVFDSDIELMQNRVPKIRQDNFFPVTYEADPTCEWVPPGHGDVYTVLYSSGKLDYLLGKGYRYMFISNGDNLGATLDVRLLDYMHEKQLGFLMEVCRRTESDKKGGHLAYKDVIDETTGQTRRRFVLRESAQCPKEDEDSFQNIAKHCFFNTNNIWINLMELKKMMDEQLGVLRLPVMRNPKTVNPQDSQSTKVYQLEVAMGAAISLFDRSEAVVVPRERFAPVKTCSDLLALRSDAYQVTEDQRLVLCEERNGKPPAIDLDGEHYKMIDGFEKLVKGGVPSLRQCTSLTVRGLVEFGADVSVRGNVVIKNLKEEPLIIGSGRVLDNEVVVVE

Key:
[1] = target: native phosphoenolpyruvate carboxykinase (PEPCK) (Trypanosoma brucei (endogenous in EATRO1125.T7T procyclic cells))
[2] = target: TY-tagged phosphoenolpyruvate carboxykinase (TY-PEPCK) (Trypanosoma brucei); assay: proximity ligation; Duolink In Situ Red mouse/rabbit kit on PFA-fixed, Triton X-100-permeabilized Δpepck/TY-PEPCK/UGP-MYC.i procyclic cells; rabbit anti-MYC and mouse anti-TY1; cell lines with only one tagged protein as negative controls

Row | Binder | glycosomal import of the tagged UGP (Western blot of glycosomal and cytosolic fractions), against native UGP in parental cells [1] | percent of PLA-positive cells [2]
1 | B1 | 9 fold | 
2 | B2 |  | 62%
